Results taken from article doi:10.1101/559534v1 (biorxiv, 2019).
Substitutions are numbered along the chain they refer to. Names may count otherwise.

Experiments:
[1] = molecular target: T1, ATRR (ATR1R2) (Aspergillus nidulans, UniProt A0A1U8QWA2); test: glycine betaine reductase inhibition kinetics; assay type: biochemical
T1 sequence (A0A1U8QWA2 1-1270): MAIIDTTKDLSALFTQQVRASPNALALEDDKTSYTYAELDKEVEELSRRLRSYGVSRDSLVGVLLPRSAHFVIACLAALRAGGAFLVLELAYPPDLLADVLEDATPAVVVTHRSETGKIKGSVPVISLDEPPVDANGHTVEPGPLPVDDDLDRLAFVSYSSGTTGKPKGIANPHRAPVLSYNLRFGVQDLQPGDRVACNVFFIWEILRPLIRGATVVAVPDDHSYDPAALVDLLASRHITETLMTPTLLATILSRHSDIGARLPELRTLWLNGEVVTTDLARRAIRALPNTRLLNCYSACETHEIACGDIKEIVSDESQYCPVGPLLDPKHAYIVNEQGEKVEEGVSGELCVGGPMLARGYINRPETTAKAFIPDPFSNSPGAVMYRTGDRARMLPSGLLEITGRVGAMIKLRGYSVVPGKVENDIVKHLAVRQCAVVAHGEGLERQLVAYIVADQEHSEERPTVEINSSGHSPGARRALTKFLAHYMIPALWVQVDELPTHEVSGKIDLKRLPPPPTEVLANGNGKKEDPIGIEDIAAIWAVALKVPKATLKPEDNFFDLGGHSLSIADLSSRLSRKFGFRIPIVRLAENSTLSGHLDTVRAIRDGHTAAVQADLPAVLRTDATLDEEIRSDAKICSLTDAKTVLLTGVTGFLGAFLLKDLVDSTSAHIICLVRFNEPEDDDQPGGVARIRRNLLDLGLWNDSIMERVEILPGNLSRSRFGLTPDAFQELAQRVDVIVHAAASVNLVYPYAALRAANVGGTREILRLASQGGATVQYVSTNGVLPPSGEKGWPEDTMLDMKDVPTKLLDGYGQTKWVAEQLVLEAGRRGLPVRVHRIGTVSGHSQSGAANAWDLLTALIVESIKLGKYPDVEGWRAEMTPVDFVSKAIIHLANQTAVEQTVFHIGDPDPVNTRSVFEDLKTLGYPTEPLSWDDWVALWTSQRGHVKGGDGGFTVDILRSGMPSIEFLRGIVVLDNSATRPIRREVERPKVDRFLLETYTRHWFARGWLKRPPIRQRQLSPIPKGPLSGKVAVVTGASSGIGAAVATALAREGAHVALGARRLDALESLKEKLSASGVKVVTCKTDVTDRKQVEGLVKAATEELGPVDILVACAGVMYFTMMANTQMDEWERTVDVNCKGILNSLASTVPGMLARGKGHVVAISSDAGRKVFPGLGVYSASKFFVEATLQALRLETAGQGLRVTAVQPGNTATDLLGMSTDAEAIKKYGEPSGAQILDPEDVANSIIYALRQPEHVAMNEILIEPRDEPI

[2] = molecular target: T1, ATRR (ATR1R2); test: carboxylic acid reductase steady-state kinetics; assay type: biochemical; conditions: substrate inhibition
[3] = substrate: C[N+](C)(C)CC=O; test: purified protein; conditions: NADPH as co-substrate
[4] = substrate: C[N+](C)(C)CC(=O)[O-]; test: carboxylic acid reductase steady-state kinetics, NADPH oxidation; assay type: biochemical, Aspergillus nidulans; conditions: ATP and NADPH as co-substrates; R2 inactivated
[5] = substrate: C[N+](C)(C)CC(=O)[O-]; test: purified protein; assay type: biochemical, Aspergillus nidulans; conditions: holo-enzyme; ATP and NADPH as co-substrates
[6] = substrate: CN(C)CC(=O)O; test: purified protein; conditions: ATP and NADPH as co-substrates; fit with substrate inhibition

Molecule: C[N+](C)(C)CCO [Choline]
- Ki [1]: 0.27 ± 0.03 mM

Molecule: CN(C)CC(=O)O [N,N-Dimethylglycine]
- Ki [2]: 48 ± 9 mM

Molecule: CN(C)C [N(CH3)3H+Cl-]
- Ki [1]: 2.6 ± 0.5 mM

B1: ATRR (ATR1R2) (Aspergillus nidulans FGSC A4; Y812F) (protein)
chain: T1 sequence (A0A1U8QWA2 1-1270) with Y812F
- Km ([3]; R1 inactivated): 240 ± 30 µM
- kcat ([3]; R1 inactivated): 7.0 ± 0.2 s⁻¹

B2: ATRR (ATR1R2) (Aspergillus nidulans FGSC A4; Y1178F) (protein)
chain: T1 sequence (A0A1U8QWA2 1-1270) with Y1178F
- Km [4]: 2200 ± 200 µM
- kcat [4]: 0.72 ± 0.02 s⁻¹
- Km ([3]; R2 inactivated): 1500 ± 600 µM
- kcat ([3]; R2 inactivated): 0.30 ± 0.04 s⁻¹

B3: ATRR (ATR1R2) (Aspergillus nidulans FGSC A4; G1036A/Y1178F) (protein)
chain: T1 sequence (A0A1U8QWA2 1-1270) with G1036A, Y1178F
- Km [4]: 2200 ± 300 µM
- kcat [4]: 0.66 ± 0.02 s⁻¹
- Km ([3]; R2 inactivated): 2600 ± 500 µM
- kcat ([3]; R2 inactivated): 0.018 ± 0.001 s⁻¹

B4: ATRR (ATR1R2) (Aspergillus nidulans FGSC A4) (protein)
chain: T1 sequence (A0A1U8QWA2 1-1270)
- Km [5]: 2100 ± 200 µM
- kcat [5]: 0.94 ± 0.03 s⁻¹
- Km [6]: 5800 ± 800 µM
- kcat [6]: 0.023 ± 0.002 s⁻¹
- Km ([3]; R2 site): 240 ± 30 µM
- kcat ([3]; R2 site): 7.1 ± 0.3 s⁻¹
